The data set concerns the molecule itself. As to the kind of experiment: small angle X-ray scattering (SAXS); hHP1β (2–185) at 1.0, 2.0 and 5.0 mg/mL, 283 K; 20 mM sodium phosphate pH 6.5, 50 mM NaCl, 2 mM DTT; MW from forward scattering against bovine serum albumin.

Results on one protein are retold here after PMC3621757, “Structural Plasticity in Human Heterochromatin Protein 1β” (PLoS ONE, 2013).

B1: full-length human Heterochromatin Protein 1β, hHP1β (2–185) (natural protein)
chain: not shown
notes: The His-tag is TEV-protease-cleavable; NMR samples were 15N-perdeuterated; also called full-length hHP1β; source: pET16b expression vector (Novagen); additional size-exclusion chromatography on Superdex200 for SAXS and DLS samples
On to B1, for which the stoichiometry N (in general, the number of molecules, sites or subunits per partner or assembly) was determined as 2.
